{
  "source": "patent US20240254209A1",
  "about": "(published 2024)",
  "binders": {"B1": {"name": "human IgE mAb 4G4 (antibody, V domains shown)", "VH": "EVQLVQSGGGLVQPGGSLRLSCAASRFIFGSYAMSWVRQAPGKGLEWVSAISSSGGRTYYADSVKGRFTISRDNSRNTLYLQLSSLRAEDTAFYYCTKEGDTGSLWLFDSWGQGTLVTVSS", "VL": "not shown", "notes": "human IgE from hybridoma"}, "B2": {"name": "human IgE mAb 3C3 (antibody, V domains shown)", "VH": "QLQLQESGPGLVKPSETLSLTCSISGASINSDDYYWGWIRQAPGEALEWIASIDASGTTFYNPSLRSRVTISVDTSTNQISLRLNSVTAADTAIYYCARRKTYYDFLTDYYNWYFDVWGRGTLVTVSS", "VL": "QSALTQPRSVSGSPGQSVTFSCTGINSDIRDYDYVSWYQQHPGEAPKLIIYDVTKRASGVPSRFSGSKSGNTASLTISGLQAEDEADYYCCSYSVTYSFEVFGTGTQVSVL", "notes": "human IgE from hybridoma"}, "B3": {"name": "human IgE mAb 3B7 (antibody, V domains shown)", "VH": "QVQLVQSGSELKKPGASMKVSCKASGYTFTNYAMNWVRQAPGQGLEWMGWINTNTGKPTYAQGFTGRFVFSLDTSVSMAYLQISSLEAGDTAVYFCARGESLAALGSFAYWGQGTLVTVSS", "VL": "DIQMTQSPSSLSASVGDRVTITCRASQSINSYLAWYQQKPGKAPNLLIYAASNLQSGVPSRFSGSGSGTDFTLTISSLQPEDFATYYCQQSSSTFWTFGQGTKVEIK", "notes": "human IgE from hybridoma"}, "B4": {"name": "human IgE mAb 26A5 (antibody, V domains shown)", "VH": "QVQLVQSGSELRKPGASVKVSCKASGYTFTKYGMNWVRQAPGQGLEWMGWINTNTAKPTYAQDFTGRFVFSLDTSVNTAYLEISGLKAEDTAVYYCATDGSEGSWGQGTLVTVSS", "VL": "DIQMTQSPSTLSASVGDRVTITCRASQSIGTWLAWHQQKPGTAPKVLIYKASNLKSGVPSRFSGSGSGTDFTLTISSLQPDDVATYYCQQYNTYSGTFGQGTRVEIK", "notes": "human IgE from hybridoma"}, "B5": {"name": "human IgE mAb 7B6 (antibody, V domains shown)", "VH": "QVQLQQWGAGLLKPSETLSLTCAVYGGSFNGYYWSWIRQPPGKGLEWIGEIDHSGSTNYNSSLKSRVTISVDTSKNQFSLKLSSVTAADTAVYYCARRRIGSLLKYFQDWGQGTLVTVSS", "VL": "SYELTQPPSVSVSPGQTASITCSGDKLGDSYVCWYQLKPGQSPVLVIYQDTKRPSGIPERFSGSNSGNTATLTISETQAMDEADYYCQAWDTTTDWVFGGGTKLTVL", "notes": "human IgE from hybridoma"}, "B6": {"name": "human IgE mAb 15A7 (antibody, V domains shown)", "VH": "QVQLVQSGPEVRKPGASVKVSCKTSGYMFTDYEMNWVRQAPGQGLEWMGLINPHSGDTGYAQKFQGRVSMTSDTSTRTFYLELTGLTSEDTAVYYCARSQGTFEVYYFVSWGQGSLVTVSS", "VL": "SYVLTQPPSVSVAPGKTASITCGAKNIATKRVHWYRQKPGQAPVVVVSDEEDRSSVIPERFSGSKSGDTATLEISRVEAGDEADYYCQVWDSLADQVVFGGGTKVTVL", "notes": "human IgE from hybridoma"}, "B7": {"name": "human IgE mAb 1A8 (antibody, V domains shown)", "VH": "QLQLQESGPGLVKPSETLSLTCSVSDDSISTPSYFWTWIRQPPGKGLEWIASIYYTGTTYYNPSLKSRVTLSVDTPKRQFFLRLSSVTAADTAVYYCARYLDYVWLRAFDVWGQGAMVTVSS", "VL": "EIVLTQSPATLSLSPGERATLSCRASPSVGRFLAWYQQKPGQAPRLLIYDASQRATDIPARFSASGSGTDFTLTIDSLEPEDFAIYYCQHRSNWPVTFGGGTRVEIK", "notes": "human IgE from hybridoma"}, "B8": {"name": "human IgE mAb 15C2 (antibody, V domains shown)", "VH": "QVQLVQSESELKKPGASVKISCKASGYDLTKYAMNWVRQAPGQGLEWMGWINTNTAKPTYAQGFTGRFVFSLDTSVRTIYLEISNLKAEDTAIYYCSRDGSGASWGQGTLVTVSS", "VL": "B4 VL with S28N, T31R, T42K, Y49T, K55E, S63T, S76T, V83F, N92T", "notes": "human IgE from hybridoma"}},
  "note": "Residue numbers refer to the chain shown, from its start.",
  "data": [
    {"target": "T1, peanut allergen Ara h 8 (peanut (Arachis hypogaea))", "T1 construct": "ImmunoCAP component F352; also called F352", "experiment": "ImmunoCAP, hybridoma supernatant", "procedure": "(§1) Verification and validation of IgE mAbs peanut allergen specificity. Following the unbiased generation of IgE secreting human hybridomas from peanut allergic subject PBMCs, peanut protein binding and peanut allergen protein specificity was determined. Hybridoma culture supernatant was initially used for this validation. […] Using the available ImmunoCAP components (purified allergen proteins: Ara h 1, F422; Ara h 2, F423; Ara h 3, F424; Ara h 8 F352; Ara h 9 F427), the exact allergen specificity was determined for those which bound Ara h 1, 2, and 3.\n(§2) Hybridoma cell culture supernatant was used for initial identification of allergen specificity using ImmunoCAP analysis. Peanut reactivity was first determined using peanut ImmunoCAP. Component analysis identified IgE antibodies specific for Ara h 1, 2, and 3. All antibodies not identified in this table were determined to bind Ara h 6.", "units": {"ImmunoCAP kUA/L": "kUA/L"}, "values": [
      {"binder": "B1", "ImmunoCAP kUA/L": 0.34},
      {"binder": "B2", "ImmunoCAP kUA/L": 0.51},
      {"binder": "B3", "ImmunoCAP kUA/L": 0.42},
      {"binder": "B4", "ImmunoCAP kUA/L": 0.15},
      {"binder": "B5", "ImmunoCAP kUA/L": 0.29}
    ]},
    {"target": "T2, peanut allergen Ara h 3 (peanut (Arachis hypogaea))", "T2 construct": "also called F424", "experiment": "ImmunoCAP, hybridoma supernatant", "procedure": "as §1, §2", "units": {"ImmunoCAP kUA/L": "kUA/L"}, "values": [
      {"binder": "B6", "ImmunoCAP kUA/L": 0.14},
      {"binder": "B1", "ImmunoCAP kUA/L": 0.48},
      {"binder": "B2", "ImmunoCAP kUA/L": 3460},
      {"binder": "B3", "ImmunoCAP kUA/L": 1.15},
      {"binder": "B4", "ImmunoCAP kUA/L": 0.25},
      {"binder": "B5", "ImmunoCAP kUA/L": 0.32}
    ]},
    {"target": "T3, peanut allergen Ara h 9 (peanut (Arachis hypogaea))", "T3 construct": "ImmunoCAP component F427; also called F427", "experiment": "ImmunoCAP, hybridoma supernatant", "procedure": "as §1, §2", "units": {"ImmunoCAP kUA/L": "kUA/L"}, "values": [
      {"binder": "B1", "ImmunoCAP kUA/L": 0.19},
      {"binder": "B2", "ImmunoCAP kUA/L": 0.46},
      {"binder": "B3", "ImmunoCAP kUA/L": 0.25},
      {"binder": "B4", "ImmunoCAP kUA/L": 0.14},
      {"binder": "B5", "ImmunoCAP kUA/L": 0.21}
    ]},
    {"target": "T4, peanut allergen Ara h 6 (peanut (Arachis hypogaea), UniProt Q647G9 22-145)", "T4 construct": "also called recombinant Ara h 6", "T4 sequence (looked up)": "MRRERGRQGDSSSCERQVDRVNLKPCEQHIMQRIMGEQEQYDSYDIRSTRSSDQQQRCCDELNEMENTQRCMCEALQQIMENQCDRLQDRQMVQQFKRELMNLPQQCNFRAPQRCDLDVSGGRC", "experiment": "Phadia ImmunoCAP and/or ELISA and Western blot", "values": [
      {"binder": "B7", "binding result": "binds"},
      {"binder": "B8", "binding result": "binds"}
    ]}
  ]
}
